Assay: soluble fraction after stress (log2 fold change); higher = more stays soluble; pooled small domains, quantitative proteomics
Settings: stress: pH 4
In short: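 Aggregation propensity is read out as the fold change in how much of each domain remains soluble after acid stress. The custom small-domain libraries were pooled, held at pH 4 and analysed with high-throughput quantitative proteomics. On the log2 scale used, higher values mean more of the domain stayed soluble.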

First: HMLTGDVDRYKDFFIALEKTSPVPIGFEKIIGGAHGYYHLEDKRIAIDEGMSELQTLKTAIHEIAHAKLHD
Second: HMYSVVGKKGIVIEDINYSTGTGQIKSEGEVWSAKTNEQINIPKGTEIEIESIDGVKVIVKPL
The “soluble fraction (log2)” value of the first is lower: -0.123 for the first, 0.221 for the second.

“HMSKQIEVPDVTDMTVSDAIDVLQDKGFVVSDEQKEVASSEIEEGRVVRTSPAVGSKRKDGTVVTLYVSI” and “HMLKHEEIQEYIKEQINSGTWKPKAKLPSLRDMSELFSTSIGTVLTAYSALEKKHIIYSIPRSGYYVLG” are within 0.2 log units of each other in “soluble fraction (log2)” value: -0.479 for the first, -0.334 for the second.

“HMENIDVGQDYKVTMNTIQNLMKTGLVTGTQYKELLREMGVHSGMGAITAQQHQIALDFLNKTMDSA” and “HMELRIREILESKDIKVSSLAETVGITRANMSNIVNGKSTPSLETLEKIANALGVDITELFA” are within 0.2 log units of each other in “soluble fraction (log2)” value: -0.444 for the first, -0.573 for the second.

First: HMSDRFLDQEGVALSTLRPSGTVVLDSGEHLDVVTRGEFIEQGERVKVIKAESTWYVVEQIN
Second: HMFSIDRNIRRLRKEAGLTQEELAQKLFVTRQTISLWELGKVHPDLETLQKLAEQFQVDLLQVLYGPE
The “soluble fraction (log2)” value of the first is higher: -0.317 for the first, -2.41 for the second.

Going from “HMFPDRLRELRKGRNITLETLAEEMNKHLEPGQKPNTAAQIGNWERGDRSPSYIEVRKLADFFNVSMDFL” to “HMGQDLSYYIKIVQNQQPVDPLTGEPKVLDYGEVIRQAQILQMLDTGDLDRDKAIGQLSMKDAL”, the “soluble fraction (log2)” value rises from -0.512 to -0.26.

“HMSQSLSGWAAKDLEVKSGADASYRTVGRLPKGSKVSGKIINGYLHIEFDGSMRYVPVSGISKTE” and “HMKQAINFSDLNSLEEGLGIAIRQKWNEVSINDVPEDKIELVEDWINNNRGKYKGINISIGSTY” are within 0.2 log units of each other in “soluble fraction (log2)” value: 0.156 for the first, 0.0722 for the second.

First: HMRVTEVSYDKFLDMLSGGQVTVVELQENERELYFKAADENGAERIYSTGVFPDADLQKRLSESGVTF
Second: HMTYTPRAGSLASQVIGFFRHNPDEELLLDDITDKFDATRGNIHTLLAEAVRFKLLARYRNDDGDYVYKPG
The “soluble fraction (log2)” value of the first is higher: -1.19 for the first, -1.6 for the second.

Going from “HMQAGILTDTAAKNARIKKIDTERLEAELDQKRIVIVTGFQGVDRNQNITTLGRGGSDTSAVALAAAVSIT” to “HMSASTGTVSYKSGATTVWNSPSWHQVKRYVTFGDTVQLLGKTVDQNGATWYKVGDNQWIPELYLNVAG”, the “soluble fraction (log2)” value falls from 0.0198 to -0.486.

Going from “HMDEAETELIRRMVSEHPPTTKRERDIVQMRLRGYLFVEIGEAYGISFQRAAQIYNAAVEKIKEYWD” to “HMAQLPADMSRVKSADVSDAQLREFVQKAQASGQTETQLFREFSRRGMPTNEINILRSRMVGLQNN”, the “soluble fraction (log2)” value rises from -0.454 to 0.0928.

First: HMINSFDYLQAIFTELMKSQSKMTNQDAAKRLFMQGKVAVSNRDREGLRMVLAQLVTLLPKEELGGLSTVS
Second: HMDYQYILVDVKDRIATVTINRPEYSNAFARESYYEIADAMNTLGARDDVGVIVITGAGKHFSAGGDIKRF
The “soluble fraction (log2)” value of the first is higher: no less than 0.43 for the first, -0.652 for the second.

“HMAGTRVWSENGQLYVTAAVSGRANVYNVLGKLNRSLTFSAGETKSVSVPAGIYVVSLNNGKAYKVAV” and “HMGVDKLTPREREVLALMAQGASNREIEGKLVLTAGAVSKHVANVFMKLGFSPEDENRRVKAVLAWLRTK” are within 0.2 log units of each other in “soluble fraction (log2)” value: 0.0936 for the first, 0.225 for the second.

Going from “HMAVWRIKVNYIPGYGVNIWSSYKNGHFTGKRAMHGETYEVLETKKDQDGNTWYKLDDHQWIEGRYAINAK” to “HMGDYERVPEYKGKLTSDLTMEDSQKFAFRFIWQNSDEDEGKIIDQDPPAGKSVAKGSEIVLYVSNG”, the “soluble fraction (log2)” value rises from -0.88 to -0.0695.

Compared with “HMPSGRIRWFDAKKGYGFIAGDDGKDVFLPQTALPQGVRNPRKGAKVEYSVIEGNRGQVAMGVTMV”, “HMYYQEDHDIILEETEDVTDPYLITLRGYIFLNNLQWVAARQAFLSADERFRHRHYSALIAPIMQTIDNAA” is lower in “soluble fraction (log2)” value: 0.0307 for the first, -1.49 for the second.

Compared with “HMKSATGKIPDFISDLPVDEFVRELIVTNAFQPLNKFKEVQNHIGSALKIYVDELTEKRANGTVHILYSHK”, “HMNKVDEEKNAELVSTIQNKFSDVSAATKKKVKAFMAEHDIPNFKNADEIPTANLEAIVAMLNED” is higher in “soluble fraction (log2)” value: -0.324 for the first, 0.22 for the second.

Going from “HMEKTEQMQVILDYIARYGEINNEKVQEILGVKRTRAYTILKQMVENGFVTTNGRGEEKKYYSIR” to “HMEEQKYEYHLGDVVYLGVDKYEILGITNNIVTLYDPEFPLLNKQLDFDEFEKRVKDNYANEHLKVT”, the “soluble fraction (log2)” value falls from -0.33 to -0.545.

First: HMDNPVPVIITDQNFQPQLWKNVGVPTDTLFHELSAANQRKLENLMKTMIQTPLTDNGKISGYAFYSK
Second: HMGETRWTYDDFGNILTEKAAPYSATEFLGKTYTYDTDNRYLKTVTDALGRTTTTLSYDKYGNPLSVMD
The “soluble fraction (log2)” value of the first is higher: 0.152 for the first, -0.357 for the second.

First: HMAETLRLVGATNLNTLARARHPDDLAARNEFRRAIAQANPALFAGKSKVGSVSLPAGTVLALPPEV
Second: HMKVVEKHIVPQIQNPIRLQEYASSIFKTITTRSGIKKAIKKQLILLNRKPANTGDWIKEGQLLELLAEE
The “soluble fraction (log2)” value of the first is higher: no less than 0.43 for the first, -0.569 for the second.

Going from “HMDSVFGVVTSSDGVKLRKEASTISKVLTVLPYGTEVDVDRIGSEWIRIVTDGGQKGYVSADYLAVREGER” to “HMSRVSVDGEEVNFEGEIPDDPSRIYELLMGALSEQSRVVVKFFVDGKDALLDEGFPSRYQMIEAESV”, the “soluble fraction (log2)” value falls from -0.1 to -0.733.

“HMEKLPRYILPGVPKVKSINISSALDGLVQDYSREFNISQKDIFQIALVEFFKKYGYHNAVKAVL” and “HMQTMTAGERREAILRELEQAQGPVSASALAKRFHVSRQAVVGDVAMLRALNSPIAATPRGYVLTR” are within 0.2 log units of each other in “soluble fraction (log2)” value: 0.0067 for the first, 0.0633 for the second.

— the domain aggregation screens of Martell et al. (2025)
